# Test results reported in patent publication US20120263675A1 (REGENTS OF THE UNIVERSITY OF MICHIGAN, published 2012).
# Square brackets hold non-standard residues; d marks the D form. Ends that are not written are not given here. * marks the point of attachment. 5FAM = O=C1OC2(c3ccc(O)cc3Oc3cc(O)ccc32)c2ccc(C(=O)*)cc21; Abu = CC[C@H](N)C(=O)O
# Columns and labels:
# [1] = biological target: T1, Human XIAP BIR3-only (residues 241-356) with N-terminal 6x His tag (human, UniProt P98170 241-356); assay: fluorescence polarization, tracer binding to XIAP BIR3
# T1 construct: range 241-356; Recombinant, produced in E. coli BL21(DE3); also called XIAP BIR3 protein; not shown: N-terminal 6x His tag from pET28 vector
# Excerpt: The FP-based assay for XIAP BIR3 protein was described in detail previously (Nikolovska-Coleska et al., Anal. Biochem. 332:261-73 (2004)). Briefly, 5-carboxyfluorescein was coupled to the lysine side chain of a mutated Smac peptide with the sequence (AbuRPFK-Fam) and this fluorescently tagged peptide (named SM5F) was used as the fluorescent tracer in FP-based binding assay to XIAP BIR3.
# [2] = biological target: T2, Human cIAP-1 BIR3-only (residues 253-363) (human, UniProt Q13490 253-363); assay: fluorescence polarization, tracer binding to cIAP-1 BIR3
# T2 construct: range 253-363; Cloned into pHis-TEV vector, produced and purified as for XIAP BIR3; also called cIAP-1 BIR3 protein; not shown: tag from pHis-TEV vector
# [3] = biological target: T3, Human cIAP2 BIR3-only (residues 238-349) (human, UniProt Q13489 238-349); assay: fluorescence polarization, tracer binding to cIAP-2 BIR3
# T3 construct: range 238-349; Cloned into pHis-TEV vector, produced and purified as for XIAP BIR3; also called cIAP-2 BIR3 protein; not shown: tag from pHis-TEV vector
# T3 sequence (Q13489 238-349): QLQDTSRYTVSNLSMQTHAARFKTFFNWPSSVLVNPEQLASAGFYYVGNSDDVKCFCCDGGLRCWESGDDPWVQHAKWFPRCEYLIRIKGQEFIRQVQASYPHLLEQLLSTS
# T1 sequence (P98170 241-356): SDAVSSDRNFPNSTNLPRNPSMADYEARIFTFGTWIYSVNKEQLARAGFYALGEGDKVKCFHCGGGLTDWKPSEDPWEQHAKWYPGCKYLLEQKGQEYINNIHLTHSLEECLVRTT
# T2 sequence (Q13490 253-363): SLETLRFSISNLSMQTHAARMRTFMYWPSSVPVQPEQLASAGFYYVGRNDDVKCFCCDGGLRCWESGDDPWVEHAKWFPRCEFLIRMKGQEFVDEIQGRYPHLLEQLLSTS
binder,measurement,setting,value
"[Abu]RPFK(5FAM) (Mutated Smac N-terminal peptide used as tracer in the FP assays; also called fluorescent tracer) [SM5F, fluorescently tagged mutated Smac peptide (AbuRPFK-Fam)]",Kd,[1],17.9 nM
same,Kd,[2],4.1 nM
same,Kd,[3],6.6 nM
